Source: patent US20230407373A1 (priority 2020, published 2023)
Where two headings read alike, the source gives them in different places.

Experiments:
Format in all cases: binding
gRNA of HCoV-OC43 = settings: for target (spectral count) / background (spectral count): type g_36_m, 36 hpi, Probe I; for target (spectral count): HCoV-OC43-infected HCT-8 cells; for background (spectral count): uninfected-probe control
HCoV-OC43 gRNA and sgRNA = settings: for target (unweighted spectral count, OC43 Probe II capture): tested against no-probe control, FDR<10%
[1] = tested on: SARS-CoV-2 gRNA and sgRNAs

B1: LUC7L2: host protein, UniProt Q9Y383 (protein, UniProt Q9Y383 1-392, looked up)
Putative RNA-binding protein …: MSAQAQMRAMLDQLMGTSRDGDTTRQRIKFSDDRVCKSHLLNCCPHDVLSGTRMDLGECLKVHDLALRADYEIASKEQDFFFELDAMDHLQSFIADCDRRTEVAKKRLAETQEEISAEVAAKAERVHELNEEIGKLLAKVEQLGAEGNVEESQKVMDEVEKARAKKREAEEVYRNSMPASSFQQQKLRVCEVCSAYLGLHDNDRRLADHFGGKLHLGFIEIREKLEELKRVVAEKQEKRNQERLKRREEREREEREKLRRSRSHSKNPKRSRSREHRRHRSRSMSRERKRRTRSKSREKRHRHRSRSSSRSRSRSHQRSRHSSRDRSRERSKRRSSKERFRDQDLASCDRDRSSRDRSPRDRDRKDKKRSYESANGRSEDRRSSEEREAGEI
With B1 the “target (spectral count)” value (gRNA of HCoV-OC43) was 9, the “background (spectral count)” value (gRNA of HCoV-OC43) was 1 and the “target (unweighted spectral count, OC43 Probe II capture)” value (HCoV-OC43 gRNA and sgRNA; 24 hpi, type n_24_v) was 4.

B2: HRNPA2B1 (protein, UniProt P22626 1-353, looked up)
Heterogeneous nuclear …: MEKTLETVPLERKKREKEQFRKLFIGGLSFETTEESLRNYYEQWGKLTDCVVMRDPASKRSRGFGFVTFSSMAEVDAAMAARPHSIDGRVVEPKRAVAREESGKPGAHVTVKKLFVGGIKEDTEEHHLRDYFEEYGKIDTIEIITDRQSGKKRGFGFVTFDDHDPVDKIVLQKYHTINGHNAEVRKALSRQEMQEVQSSRSGRGGNFGFGDSRGGGGNFGPGPGSNFRGGSDGYGSGRGFGDGYNGYGGGPGGGNFGGSPGYGGGRGGYGGGGPGYGNQGGGYGGGYDNYGGGNYGSGNYNDFGNYNQQPSNYGPMKSGNFGGSRNMGGPYGGGNYGPGGSGGSGGYGGRSRY
B2 was tested, and the “target (unweighted spectral count in RNP capture)” value ([1]; Probe II capture, […], LC-MS/MS LFQ) was 88 and the “background (unweighted spectral count in control)” value ([1]; no-probe control pull-down, used as background for Probe II) was 1.

B3: RAVER1 (protein, UniProt Q8IY67 2-606, looked up)
Ribonucleoprotein PTB-binding …: AADVSVTHRPPLSPKSGAEVEAGDAAERRAPEEELPPLDPEEIRKRLEHTERQFRNRRKILIRGLPGDVTNQEVHDLLSDYELKYCFVDKYKGTAFVTLLNGEQAEAAINAFHQSRLRERELSVQLQPTDALLCVANLPPSLTQQQFEELVRPFGSLERCFLVYSERTGQSKGYGFAEYMKKDSAARAKSDLLGKPLGPRTLYVHWTDAGQLTPALLHSRCLCVDRLPPGFNDVDALCRALSAVHSPTFCQLACGQDGQLKGFAVLEYETAEMAEEAQQQADGLSLGGSHLRVSFCAPGPPGRSMLAALIAAQATALNRGKGLLPEPNILQLLNNLGPSASLQLLLNPLLHGSAGGKQGLLGAPPAMPLLNGPALSTALLQLALQTQGQKKPGILGDSPLGALQPGAQPANPLLGELPAGGGLPPELPPRRGKPPPLLPSVLGPAGGDREALGLGPPAAQLTPPPAPVGLRGSGLRGPLSHFYSGSPTSYFTSGLQAGLKQSHLSKAIGSSPLGSGEGLLGLSPGPNGHSHLLKVRAGGGDMQGWEAPAPQRPLTRPALPSVSRPHWAARNAALPTCCPRPSPAQKAAMWASTPRASAATTRTPT
B3 was tested, and the “target (spectral count, OC43 Probe I RNP capture)” value (gRNA of HCoV-OC43; type n_48_v: 48 hours post-infection, infected cells, OC43 Probe I, unweighted spectral count) was 5, the “background (spectral count, no-probe control)” value (gRNA of HCoV-OC43; type n_48_v: 48 hours post-infection, no-probe control on infected cells) was 1 and the “target (unweighted spectral count, OC43 Probe II)” value (HCoV-OC43 gRNA and sgRNA; type n_48_v, 48 hpi, OC43 Probe II capture on infected cells) was 5. For the same molecule, the “background (unweighted spectral count, no-probe control)” value (HCoV-OC43 gRNA and sgRNA; type n_48_v, 48 hpi, no-probe control on infected cells) was 1.

B4: PDIA6: host protein, UniProt Q15084 (protein, UniProt Q15084 20-440, looked up)
Protein disulfide-isomerase A6: LYSSSDDVIELTPSNFNREVIQSDSLWLVEFYAPWCGHCQRLTPEWKKAATALKDVVKVGAVDADKHHSLGGQYGVQGFPTIKIFGSNKNRPEDYQGGRTGEAIVDAALSALRQLVKDRLGGRSGGYSSGKQGRSDSSSKKDVIELTDDSFDKNVLDSEDVWMVEFYAPWCGHCKNLEPEWAAAASEVKEQTKGKVKLAAVDATVNQVLASRYGIRGFPTIKIFQKGESPVDYDGGRTRSDIVSRALDLFSDNAPPPELLEIINEDIAKRTCEEHQLCVVAVLPHILDTGAAGRNSYLEVLLKLADKYKKKMWGWLWTEAGAQSELETALGIGGFGYPAMAAINARKMKFALLKGSFSEQGINEFLRELSFGRGSTAPVGGGAFPTIVEREPWDGRDGELPVEDDIDLSDVELDDLGKDEL
For B4, the “target (spectral count)” value (gRNA of HCoV-OC43) was 12, the “background (spectral count)” value (gRNA of HCoV-OC43) was 1 and the “target (unweighted spectral count, OC43 Probe II capture)” value (HCoV-OC43 gRNA and sgRNA; 24 hpi, type n_24_v) was 4. For the same molecule, the “target (unweighted spectral count, OC43 Probe II capture)” value (HCoV-OC43 gRNA and sgRNA; 36 hpi, type n_36_v) was 7, the “target (spectral count)” value (HCoV-OC43 gRNA and sgRNA; type s_36_m, HCoV-OC43-infected HCT-8 cells, 36 hpi, Probe II) was 7 and the “background (spectral count)” value (HCoV-OC43 gRNA and sgRNA; type s_36_m, uninfected-probe control, 36 hpi, Probe II) was 1.
